Experimental data from the supplement of paper PMC9233669.
Fewer inactive variants are shown than the library holds.

Columns and labels:
biotinyl-Phe-oxazolone = assay: self-aminoacylation, catalytic enhancement (BFO) (fold over background); higher = more active; k-Seq, kA / k0A0; sequences stand for … in GGGAAUGGAUCCACAUCUACGAAUUC…UUCACUGCAGACUUGACGAAGCUG
Procedure, shortened: (§1)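 Mutagenized RNA pools with a 21-nt variable region (0.43 μM) reacted with each biotinyl-aminoacyl-oxazolone at 2–1250 μM. Reactions ran in 50 μL HEPES/NaCl/KCl/MgCl2/CaCl2 buffer with 5% acetonitrile, pH 6.9–7.0, for 90 minutes at room temperature. Streptavidin-captured RNA was quantified by triplicate qPCR and Illumina sequencing, and per-sequence fraction reacted was fit to a pseudo-first-order model with 1000 bootstraps. Catalytic enhancement is median kA divided by the uncatalyzed rate, the low-activity peak of a bimodal Gaussian fit.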

biotinyl-Val-oxazolone = assay: self-aminoacylation, catalytic enhancement (BVO) (fold over background); higher = more active; k-Seq, kA / k0A0; sequences stand for … in GGGAAUGGAUCCACAUCUACGAAUUC…UUCACUGCAGACUUGACGAAGCUG
Procedure, shortened: as §1

biotinyl-Leu-oxazolone = assay: self-aminoacylation, catalytic enhancement (BLO) (fold over background); higher = more active; k-Seq, kA / k0A0; sequences stand for … in GGGAAUGGAUCCACAUCUACGAAUUC…UUCACUGCAGACUUGACGAAGCUG
Procedure, shortened: as §1

biotinyl-Trp-oxazolone = assay: self-aminoacylation, catalytic enhancement (BWO) (fold over background); higher = more active; k-Seq, kA / k0A0; sequences stand for … in GGGAAUGGAUCCACAUCUACGAAUUC…UUCACUGCAGACUUGACGAAGCUG
Procedure, shortened: as §1

biotinyl-Ile-oxazolone = assay: self-aminoacylation, catalytic enhancement (BIO) (fold over background); higher = more active; k-Seq, kA / k0A0; sequences stand for … in GGGAAUGGAUCCACAUCUACGAAUUC…UUCACUGCAGACUUGACGAAGCUG
Procedure, shortened: as §1

biotinyl-Met-oxazolone = assay: self-aminoacylation, catalytic enhancement (BMO) (fold over background); higher = more active; k-Seq, kA / k0A0; sequences stand for … in GGGAAUGGAUCCACAUCUACGAAUUC…UUCACUGCAGACUUGACGAAGCUG
Procedure, shortened: as §1

| Sequence | self-aminoacylation (biotinyl-Phe-oxazolone) | self-aminoacylation (biotinyl-Val-oxazolone) | self-aminoacylation (biotinyl-Leu-oxazolone) | self-aminoacylation (biotinyl-Trp-oxazolone) | self-aminoacylation (biotinyl-Ile-oxazolone) | self-aminoacylation (biotinyl-Met-oxazolone) |
| --- | --- | --- | --- | --- | --- | --- |
| UCUCACUUCAAGCAAUCGGUC [Fam1B.1 aminoacylation ribozyme variant] | 44.5 | 1.35 | 1.71 | 21.5 | 1.23 | 1.15 |
| AAGUUUGCUAAUAUUCGCAAC [Fam3.1 aminoacylation ribozyme variant] | 0.972 | 1.17 | 1.11 | 2.36 | 1.15 | 1.22 |
| AUUCACCCAGGUCAACGGGUG [Fam2.2 aminoacylation ribozyme variant] | 19.7 | 2.53 | 4.29 | 3.81 | 1.96 | 3.24 |
| AUUCACCGAGUUCAUCGGGUG [Fam2.2 aminoacylation ribozyme variant] | 37.1 | 3.14 | 5.07 | 4.3 | 3.56 | 4.92 |
| GUUCACCUAGGUCAUCGAGUG [Fam2.2 aminoacylation ribozyme variant] | 27.6 | 6.89 | 15.7 | 6.52 | 8.09 | 11.4 |
| AAGCUUGCUAAUAGUCGGAAG [Fam3.1 aminoacylation ribozyme variant] | 3.45 | 1.3 | 1.21 | 1.65 | 1.48 | 1.34 |
| AUUACCCUGGUCAUUGAGUGU [Fam2.1 aminoacylation ribozyme variant] | 18.9 | 2.78 | 4.72 | 5.6 | 2.42 | 4.42 |
| AUUCAUCUAAGUCAUCGGGUG [Fam2.2 aminoacylation ribozyme variant] | 86.6 | 5.64 | 15 | 10.9 | 6.41 | 10.9 |
| AAGUUUGCUAAUAGUCACUAG [Fam3.1 aminoacylation ribozyme variant] | 1.1 | 0.939 | 0.836 | 1.13 | 1.08 | 0.981 |
| CCACACUUCAAGCACUCGGGC [Fam1B.1 aminoacylation ribozyme variant] | 13.2 | 3.61 | 2.62 | 3.37 | 2.58 | 3.49 |
| AUUACCCUGGCCAUCUAGUGA [Fam2.1 aminoacylation ribozyme variant] | 28.6 | 2.79 | 5.69 | 4.43 | 2.93 | 4.68 |
| CCACACUUCCAGAAAUCGGUC [Fam1B.1 aminoacylation ribozyme variant] | 1.69 | 1.06 | 1.13 | 0.976 | 0.933 | 0.808 |
| AUUCAUCUAGGUCGUCGGGUG [Fam2.2 aminoacylation ribozyme variant] | 4.73 | 1.86 | 2.27 | 1.68 | 1.93 | 2.1 |
| AAGUUAGCUAAUAGUCGCAAA [Fam3.1 aminoacylation ribozyme variant] | 2.51 | 1.39 | 1.64 | 1.06 | 2.01 | 1.47 |
| AAGUUUUCUAAUAGUCGCAAG [Fam3.1 aminoacylation ribozyme variant] | 2.64 | 1.31 | 1.32 | 1.58 | 1.51 | 1.23 |
| CUACUUCAAACAGUCGGUCUU [Fam1A.1 aminoacylation ribozyme variant] | 0.838 | 0.819 | 1.13 | 0.563 | 1.1 | 0.925 |
| AAGUGGGCUAAUAGUCGCAAG [Fam3.1 aminoacylation ribozyme variant] | 2.27 | 1.32 | 1.44 | 1.73 | 1.6 | 1.56 |
| AAGUAUGCUAAUAGACGCAAG [Fam3.1 aminoacylation ribozyme variant] | 1.04 | 0.637 | 0.725 | 0.756 | 0.823 | 0.824 |
| AAGUUCGCUAAUAGUCGCAGG [Fam3.1 aminoacylation ribozyme variant] | 2.51 | 1.89 | 3.87 | 2.2 | 2.54 | 2.87 |
| AUUCACCUAAGUCAUCCGGUG [Fam2.2 aminoacylation ribozyme variant] | 63.4 | 5.61 | 12.2 | 10.3 | 5.54 | 9.71 |
| UUUACCCUGGUGAUCGAGUGA [Fam2.1 aminoacylation ribozyme variant] | 28.6 | 3.51 | 6.55 | 7.87 | 3.39 | 6.47 |
| AAGUUUGCUAGUAGUCACAAG [Fam3.1 aminoacylation ribozyme variant] | 1.37 | 1.08 | 0.962 | 0.986 | 1.05 | 1.43 |
| AUUACCCUGGUCAUCGUGUGA [Fam2.1 aminoacylation ribozyme variant] | 17.2 | 1.85 | 3.08 | 3.41 | 1.58 | 3.01 |
| CUACUUCACACAAUGGGUCUG [Fam1A.1 aminoacylation ribozyme variant] | 0.647 | 0.754 | 0.775 | 0.589 | 0.865 | 0.826 |
| GAGUUAGCUAAUAGUCGCAAG [Fam3.1 aminoacylation ribozyme variant] | 2.62 | 1.64 | 2.12 | 2.62 | 2.14 | 1.5 |
| CCACACUGCAAGCAAUCAGUC [Fam1B.1 aminoacylation ribozyme variant] | 1.1 | 0.741 | 0.852 | 0.551 | 0.79 | 0.584 |

| Sequence | self-aminoacylation (biotinyl-Phe-oxazolone) | self-aminoacylation (biotinyl-Val-oxazolone) | self-aminoacylation (biotinyl-Leu-oxazolone) | self-aminoacylation (biotinyl-Trp-oxazolone) | self-aminoacylation (biotinyl-Ile-oxazolone) | self-aminoacylation (biotinyl-Met-oxazolone) |
| --- | --- | --- | --- | --- | --- | --- |
| UUACUUGAAACAAUCGGUCUG [Fam1A.1 aminoacylation ribozyme variant] | 1.52 | 1.03 | 1.11 | 0.889 | 1.15 | 1.32 |
| AUGUUUGCUAAUAGUCGCACG [Fam3.1 aminoacylation ribozyme variant] | 1.24 | 0.981 | 1.13 | 0.741 | 1.15 | 1.02 |
| AUUCCUCUAGGUCAUCGGGUG [Fam2.2 aminoacylation ribozyme variant] | 154 | 10.5 | 23.7 | 16.1 | 10.4 | 16.6 |
| ACUCACCUAGGGCAUCGGGUG [Fam2.2 aminoacylation ribozyme variant] | 18.2 | 3.83 | 5.19 | 6.35 | 4.42 | 3.92 |
| CUACUUCAACCCAUCGGUCUG [Fam1A.1 aminoacylation ribozyme variant] | 0.647 | 0.983 | 0.943 | 0.838 | 0.983 | 0.722 |
| AAUCACCUGGGUCAUCGGGUG [Fam2.2 aminoacylation ribozyme variant] | 31.9 | 6.36 | 4.47 | 7.63 | 4.12 | 4.32 |
| CCACACUACAAGCAAUCGGUU [Fam1B.1 aminoacylation ribozyme variant] | 1.55 | 1.08 | 0.677 | 1.39 | 1.02 | 0.918 |
| AUUACCCUCGUCAACGAGUGA [Fam2.1 aminoacylation ribozyme variant] | 5.53 | 2.06 | 3 | 2.82 | 1.89 | 3.05 |
| AUUACCCUGAUCAUCCAGUGA [Fam2.1 aminoacylation ribozyme variant] | 16.9 | 3.49 | 5.22 | 7.09 | 2.91 | 5.79 |
| AAGUUUGCUAAUAGUCGUAAA [Fam3.1 aminoacylation ribozyme variant] | 2.23 | 1.04 | 0.826 | 1.01 | 0.909 | 0.973 |
| AUUAACAUGGUCAUCGAGUGA [Fam2.1 aminoacylation ribozyme variant] | 26.1 | 3.23 | 6.1 | 8.43 | 3.41 | 5.53 |
| AUGCACCUAGGUCAUCGGGUU [Fam2.2 aminoacylation ribozyme variant] | 5.22 | 3.24 | 4.54 | 4.05 | 3.66 | 4.43 |
| AUUACCCUGGUGAUCGAUUGA [Fam2.1 aminoacylation ribozyme variant] | 0.845 | 0.859 | 1.09 | 0.834 | 1.03 | 1.39 |
| AUUAACCUCGGUCAUCGGGUG [Fam2.2 aminoacylation ribozyme variant] | 28.5 | 3.76 | 5.54 | 3.74 | 3.13 | 5.08 |
| AAGUAUGCUAAUAUUCGCAAG [Fam3.1 aminoacylation ribozyme variant] | 1.45 | 1.46 | 2.04 | 2.45 | 1.95 | 1.76 |
| AUUAGCCUGGUCAUCGCGUGA [Fam2.1 aminoacylation ribozyme variant] | 165 | 11.2 | 22.3 | 22.6 | 10.3 | 21.7 |
| CUACUUCAGACAAUGGGUCUG [Fam1A.1 aminoacylation ribozyme variant] | 0.994 | 0.791 | 0.916 | 0.664 | 0.948 | 0.798 |
| AAUCACCUAGGUCAUCCGGUG [Fam2.2 aminoacylation ribozyme variant] | 50 | 4.15 | 6.61 | 6.07 | 4.59 | 5.22 |
| AUUCUCCUAGGUCCUCGGGUG [Fam2.2 aminoacylation ribozyme variant] | 54.1 | 4.54 | 10.5 | 7.62 | 4.72 | 6.44 |
| CCACACUUCAAGAUAUCGGUC [Fam1B.1 aminoacylation ribozyme variant] | 0.633 | 0.795 | 0.736 | 0.657 | 0.774 | 0.624 |
| AAGUUUGCUAAUAUUAGCAAG [Fam3.1 aminoacylation ribozyme variant] | 1.2 | 1.24 | 1.08 | 1.3 | 1.28 | 1.32 |
| CCACACUUCACGCAAUCGGUU [Fam1B.1 aminoacylation ribozyme variant] | 0.906 | 1.92 | 1.95 | 1.45 | 1.76 | 2.01 |
| AUUAACCUGGUCAUCGAGUGC [Fam2.1 aminoacylation ribozyme variant] | 0.898 | 1.1 | 1.18 | 0.854 | 0.994 | 1.25 |
| AAGUUUGCUAAUACUGGCAAG [Fam3.1 aminoacylation ribozyme variant] | 0.739 | 0.571 | 0.696 | 0.458 | 0.642 | 0.481 |
| CUACUUCAAACAACCGGCCUG [Fam1A.1 aminoacylation ribozyme variant] | 2.27 | 1.86 | 1.51 | 1.49 | 1.8 | 2.4 |
